The values below are quoted from earlier work in PMC9781680.

pKd: −log10 of the molar value.

This data set has as its target GLP1 peptide (Homo sapiens) (UniProt P01275).
Chain of UniProt P01275 (P01275 98-127): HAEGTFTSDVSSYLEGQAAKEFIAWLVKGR

Regarding GLP1R (from UniProt P43220), the pKd was 9.30.

What is called pKd is −log10 of the Kd, conventionally taken in molar units.
